For experiment [1], the target named is N-terminally truncated TbAdoMetDCΔ26 (Trypanosoma brucei).
Experiment [2] addresses TbAdoMetDC H172A (Trypanosoma brucei).
Experiment [3] addresses TbAdoMetDC-W137A/M146A (Trypanosoma brucei).
Experiment [4] addresses Trypanosoma brucei S-adenosylmethionine decarboxylase, wild type (Trypanosoma brucei).

Sequence of Trypanosoma brucei S-adenosylmethionine decarboxylase, wild type (Trypanosoma brucei) (P50244 1-85, tags left off, chain 1 of 2): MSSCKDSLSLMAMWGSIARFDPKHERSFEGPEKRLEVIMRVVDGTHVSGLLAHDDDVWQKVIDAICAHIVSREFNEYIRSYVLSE
Sequence of Trypanosoma brucei S-adenosylmethionine decarboxylase, wild type (Trypanosoma brucei) (P50244 86-370 limits assumed, chain 2 of 2): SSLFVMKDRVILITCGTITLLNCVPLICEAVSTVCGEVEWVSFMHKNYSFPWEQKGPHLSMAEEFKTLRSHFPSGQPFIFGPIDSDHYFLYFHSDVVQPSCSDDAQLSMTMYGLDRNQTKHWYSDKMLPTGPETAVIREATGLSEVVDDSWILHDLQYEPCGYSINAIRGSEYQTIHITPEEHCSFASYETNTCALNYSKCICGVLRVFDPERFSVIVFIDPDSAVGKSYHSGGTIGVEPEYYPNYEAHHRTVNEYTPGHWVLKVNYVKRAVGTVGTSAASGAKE

With “Trypanosoma brucei prozyme, wild type (natural protein)”, the kcat/Km of AdoMet decarboxylation (14C-AdoMet, 37°C) by the TbAdoMetDC/prozyme heterodimer, with 4 mM putrescine worked out at 7.6 s^−1M^−1 in experiment [1], 2100 s^−1M^−1 in experiment [2], 87 s^−1M^−1 in experiment [3] and 3200 s^−1M^−1 in experiment [4]. In addition, the kcat/Km of AdoMet decarboxylation (14C-AdoMet, 37°C) by the TbAdoMetDC/prozyme heterodimer, without putrescine in experiment [1] came to 2.2 s^−1M^−1; in experiment [2] it was 93 s^−1M^−1; in experiment [3] it was 5 s^−1M^−1; in experiment [4], 2600 s^−1M^−1.
As for prozyme-M148'A/Y152'A (natural protein), in experiment [4], the kcat/Km of AdoMet decarboxylation (14C-AdoMet, 37°C) by the TbAdoMetDC/prozyme heterodimer, with 4 mM putrescine stood at 660 s^−1M^−1 and the kcat/Km of AdoMet decarboxylation (14C-AdoMet, 37°C) by the TbAdoMetDC/prozyme heterodimer, without putrescine stood at 16 s^−1M^−1.

The values above are taken from publication PMC5201418.
